From article doi:10.1101/2022.04.25.489347

Columns and labels:
[1] = target: AtFKBP43 (1-136) (Arabidopsis thaliana) (UniProt F4J9Q6); test: pull-down
[2] = target: AtFKBP43 (1-164) (Arabidopsis thaliana) (UniProt F4J9Q6); test: pull-down
Sequence of AtFKBP43 (1-164) (Arabidopsis thaliana) (F4J9Q6 1-164): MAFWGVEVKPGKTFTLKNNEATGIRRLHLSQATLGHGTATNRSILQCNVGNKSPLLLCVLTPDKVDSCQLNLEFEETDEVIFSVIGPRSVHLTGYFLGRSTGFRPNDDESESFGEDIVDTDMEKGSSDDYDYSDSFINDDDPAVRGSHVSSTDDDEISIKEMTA

Sequence of AtFKBP43 (1-136) (Arabidopsis thaliana) (F4J9Q6 1-136): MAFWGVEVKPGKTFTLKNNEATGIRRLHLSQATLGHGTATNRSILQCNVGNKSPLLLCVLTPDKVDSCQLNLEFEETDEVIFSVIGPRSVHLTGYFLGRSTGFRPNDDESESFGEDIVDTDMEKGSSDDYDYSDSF

NaCl concentration up to which the complex was stable [1] [M] | NaCl concentration up to which the complex was stable [2] [M] | Substance
0.3 | 0.3 | H2A/H2B dimer (from UniProt P06897 1-130; P02281 1-126) (complex)
1 | 1 | H3/H4 tetramer (from UniProt P84233 1-136; P62799 1-103) (complex)
